Patent US20120276611A1 (GRIFOLS THERAPEUTICS, published 2012)

B1: micro-plasmin (enzyme, UniProt P00747 562-810, looked up)
chain: APSFDCGKPQVEPKKCPGRVVGGCVAHPHSWPWQVSLRTRFGMHFCGGTLISPEWVLTAAHCLEKSPRPSSYKVILGAHQEVNLEPHVQEIEVSRLFLEPTRKDIALLKLSSPAVITDKVIPACLPSPNYVVADRTECFITGWGETQGTFGAGLLKEAQLPVIENKVCNRYEFLNGRVQSTELCAGHLAGGTDSCQGDSGGPLVCFEKDKYILQGVTSWGLGCARPNKPGVYVRVSRFVTWIEGVMRNN
notes: domain: serine protease domain; also called micro-plasmin (lacking all five kringles)
B2: mini-plasmin (enzyme)
chain: VAPPPVVLLPDVETPSEEDCMFGNGKGYRGKRATTVTGTPCQDWAAQEPHRHSIFTPETNPRAGLEKNYCRNPDGDVGGPWCYTTNPRKLYDYCDVPQCAAPSFDCGKPQVEPKKCPGRVVGGCVAHPHSWPWQVSLRTRFGMHFCGGTLISPEWVLTAAHCLEKSPRPSSYKVILGAHQEVNLEPHVQEIEVSRLFLEPTRKDIALLKLSSPAVITDKVIPACLPSPNYVVADRTECFITGWGETQGTFGAGLLKEAQLPVIENKVCNRYEFLNGRVQSTELCAGHLAGGTDSCQGDSGGPLVCFEKDKYILQGVTSWGLGCARPNKPGVYVRVSRFVTWIEGVMRNN
notes: also called mini-plasmin (K5-SP)
B3: (TAL6003)-plasmin (enzyme)
chain: MRDVVLFEKKVYLSECKTGNGKNYRGTMSKTKNGITCQKWSSTSPHRPRFSPATHPSEGLEENYCRNPDNDPQGPWCYTTDPEKRYDYCDVPQCAAPSFDCGKPQVEPKKCPGRVVGGCVAHPHSWPWQVSLRTRFGMHFCGGTLISPEWVLTAAHCLEKSPRPSSYKVILGAHQEVNLEPHVQEIEVSRLFLEPTRKDIALLKLSSPAVITDKVIPACLPSPNYVVADRTECFITGWGETQGTFGAGLLKEAQLPVIENKVCNRYEFLNGRVQSTELCAGHLAGGTDSCQGDSGGPLVCFEKDKYILQGVTSWGLGCARPNKPGVYVRVSRFVTWIEGVMRNN
notes: also called recombinant (TAL6003)-plasmin

Key:
α2-antiplasmin [1] = molecular target: T1, α2-antiplasmin (UniProt P08697 40-491, limits assumed); assay: enzyme mixed with α2-antiplasmin, residual S-2251 activity at time points (Wiman and Collen); 22° C., PBS pH 7.4
T1 construct: also called α2-AP
T1 sequence (looked up): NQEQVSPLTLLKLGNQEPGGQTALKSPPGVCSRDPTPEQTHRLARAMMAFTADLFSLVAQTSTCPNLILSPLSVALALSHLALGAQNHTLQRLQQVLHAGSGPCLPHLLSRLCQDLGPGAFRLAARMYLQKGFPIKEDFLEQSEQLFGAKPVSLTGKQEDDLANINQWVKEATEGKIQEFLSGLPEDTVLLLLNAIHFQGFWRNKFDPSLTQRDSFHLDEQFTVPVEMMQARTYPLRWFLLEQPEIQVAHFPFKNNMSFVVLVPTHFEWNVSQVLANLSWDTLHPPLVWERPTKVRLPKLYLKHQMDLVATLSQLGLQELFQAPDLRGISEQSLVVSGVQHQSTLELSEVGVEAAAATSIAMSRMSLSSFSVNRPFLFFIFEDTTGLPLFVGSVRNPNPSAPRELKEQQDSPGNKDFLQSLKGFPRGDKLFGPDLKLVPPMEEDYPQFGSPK
Protocol: TABLE 3 Inhibition rates for various plasmin species and inhibitors were determined at 22° C. in PBS buffer, pH 7.4.

α2-antiplasmin [2] = molecular target: T1, α2-antiplasmin; assay: inhibition rates by α2-antiplasmin compared (residual S-2251 activity)

Row | Binder | inhibition rate (second-order rate constant) (α2-antiplasmin [1]) | fold faster inhibition than micro-plasmin or mini-plasmin (α2-antiplasmin [2])
1 | B1 | 180000 M⁻¹ s⁻¹ | 
2 | B2 | 240000 M⁻¹ s⁻¹ | 
3 | B3 | 1.8e+07 M⁻¹ s⁻¹ | 40 fold
